± gives the standard deviation of the averaged measurements.
Key:
[1] = system: VchCAST RNA-guided transposition machinery (E. coli BL21(DE3) host, lacZ target); experiment: relative integration efficiency (T-LR orientation) vs wild-type transposon end (log2 (normalized fold change)); transposon end mutated: right end (5 bp flank + 75 bp right end); higher = more efficient transposition
Summary of the method: (§1)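 Each barcoded pool, 1549 left-end or 1849 right-end transposon variants in a pUC57 mini-transposon donor, went into E. coli BL21(DE3) with a T7-driven effector plasmid (CRISPR array, tniQ-cas8-cas7-cas6, tnsA-tnsB-tnsC). Plates contained 0.1 mM IPTG and were held at 37°C for 18 h. Input plasmids and genomic integration junctions were PCR-amplified and read by Illumina sequencing, with two biological output replicates and four reference barcodes. Relative integration efficiency is the fold change of output over input barcode abundance, normalised to the reference barcodes and log-transformed.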

[2] = system: VchCAST RNA-guided transposition machinery (E. coli BL21(DE3) host, lacZ target); experiment: relative integration efficiency (T-RL orientation) vs wild-type transposon end (log2 (normalized fold change)); transposon end mutated: right end (5 bp flank + 75 bp right end); higher = more efficient transposition
Summary of the method: as §1

Row | Sequence | relative integration efficiency (log2) [1] | relative integration efficiency (log2) [2]
1 | ACATTTGTTGATACACCCATAAATTGATAATTACACCCATAAATTGATATTGCTCACAACCATAAGTTGATATTTTCTCTGATCATAGTCAGACCAACATTGCTACGACCCGTATTCGCACCGACAC | 0.079 ± 0.1 | -0.802 ± 0.24
2 | ACATTTGTTGATACCACCATAAAATGGTAATTCCACCCCTACATTGATAATTATCACACCCAATTTAACTATAACGCTCTGATCATAGTCAGACCAACATTGCTACGACCCGTATTCGCACCGACAC | -0.833 ± 0.022 | -4.47 ± 0.45
3 | ACATTTGTTGATACACAACGCCCCGTCGCCGGCACAAACGCCCGGTCGCCGGCGACACAAACGCCCGGTCGCGGTAAGAGGATCATAGTCAGACCAACATTGCTACGACCCGTATTCGCACCGACAC | -5.17 ± 0.85 | -7.89 ± 0.53
4 | ACATTTGTTGATACAACCATAAAATGATAATTACACCCATATTAAGATAATTATCACACCCATAAATTGATATTGCCTCTGATCATAGTCAGACCAACATTGCTACGACCCGTATTCGCACCGACAC | -0.688 ± 0.12 | -0.6107 ± 0.0014
5 | ACATTTGTTGATACAACCAATTTTTGATAATTACACCCAATTTATGATAATTATCACACCCAATTTATGATATTGCCTCTGATCATAGTCAGACCAACATTGCTACGACCCGTATTCGCACCGACAC | -1.18 ± 0.21 | -1.89 ± 0.22
6 | ACATTTGTTGATACAAAACGCCCCGTCGCCGGCACAAACGCCCGGTCGCCGGCGACACAAACGCCCGGTCGCGGTAAGAGGATCATAGTCAGACCAACATTGCTACGACCCGTATTCGCACCGACAC | -5.49 ± 0.46 | -7.52 ± 1
7 | ACATTTGTTGATACAACCATAAAGTGATATTTACAACCATATATTGATATCTCTCACAACCATATATTGATATCTCCTCTGATCATAGTCAGACCAACATTGCTACGACCCGTATTCGCACCGACAC | 0.32 ± 0.11 | -0.415 ± 0.28
8 | ACATTTCTTGATACAACCATAAAATGATAATTACACCCATAAATGGATAATTATCACACCCAATTTAACTATAACGCTCTGATCATAGTCAGACCAACATTGCTACGACCCGTATTCGCACCGACAC | 0.0926 ± 0.35 | -2 ± 0.23
9 | ACATTTGTTGATACACCCATAAATTGATATTGCCACCCATAAATTGATATTGCTCACACCCATAAATTGATAATTACTCTGATCATAGTCAGACCAACATTGCTACGACCCGTATTCGCACCGACAC | 0.226 ± 0.19 | -1.21 ± 0.15
10 | ACATTTGTTGATACAACCATAAAAGGATCATTACCCCCATCAATTGATAATTATCACACCCAATTTAACTATAACGCTCTGATCATAGTCAGACCAACATTGCTACGACCCGTATTCGCACCGACAC | -1.13 ± 0.29 | -4.48 ± 0.1
11 | ACATTTGTTGATACAACCATAAAATGATAATTACACCCATAAATTGATAATTATCACACCCATAAATTGATATTGCCTCTGATCATAGTCGAACTAGTTAACTAGTACGCTCAGACCGCACCGACAC | 0.192 ± 0.2 | -0.00349 ± 0.18
12 | ACATTTGTTGATACAACCATAAAATGATAATTACACCCATAAATTGATAATTAAGTGACCCATAAATTGATATTGCCTCTGATCATAGTCAGACCAACATTGCTACGACCCGTATTCGCACCGACAC | 0.91 ± 0.58 | -0.484 ± 0.16
13 | ACATTTGTTGATACAACCATAAAATGATAATTACACCCATAAATTGATAATTATCCACCCATAAATTGATATTGCCTCTGATCATAGTCAGACCAACATTGCTACGACCCGTATTCGCACCGACACT | 0.607 ± 0.072 | -0.433 ± 0.14
14 | ACATTTGTTGATACAACCCTAAAATGATAATTACACCCCTAAATTGATAATTATCACACCCCTAAATTGATATTGCCTCTGATCATAGTCAGACCAACATTGCTACGACCCGTATTCGCACCGACAC | -3.01 ± 0.1 | -4.68 ± 0.11
15 | ACATTTGTTGATACAACCATATATTGATATCTCCAACCATAAAATGATAATTATCACACCCATAAATTGATAATTACTCTGATCATAGTCAGACCAACATTGCTACGACCCGTATTCGCACCGACAC | -0.0737 ± 0.099 | -0.0947 ± 0.0052
16 | ACATTTGTTGATACAACCATAACCGTATAATTACACCCATAAATTGATAATTATCACACCCATAAATTGATATTGCCTCTGATCATAGTCAGACCAACATTGCTACGACCCGTATTCGCACCGACAC | -1.78 ± 0.49 | -1.41 ± 0.21
17 | ACATTTGTTGATACAACCATAAAATGATAATTACACCCATAAATTGATAATTATCACACCCATAAATTGATATTGCCTCTGATCATAGTCAACCATAAAATGATAATTACAGACCAAGCACCGACAC | -0.792 ± 0.34 | -0.223 ± 0.2

Reference: the supplement of paper PMC10201428
